Data on 1 protein can be found in article PMC9213739, “Substrates and Loaded Iron Ions Relative Position Influence the Catalytic Characteristics of the Metalloenzymes Angelica archangelica Flavone Synthase I and Camellia sinensis Flavonol Synthase” (Frontiers in Pharmacology, 2022).

Substrate in the data set: COc1ccc([C@@H]2CC(=O)c3c(O)cc(O)cc3O2)cc1O
The data set can be described thus: UPLC-MS product formation, Lineweaver-Burk. It is filed as biochemical, Camellia sinensis. Conditions: 4'-O-methyl taxifolin formation (main product), Tris-HCl pH 7.5, 23 °C, 1 h, 5 mM 2-mercaptoethanol, 1 mM NADPH, 'separated protein', purification not described. From the text:
UPLC-MS product formation, Lineweaver-Burk on CaFLS

B1: CaFLS (Camellia sinensis) (protein)
chain: MEVERVQALSHVTLHELPAKFIRPAHEQPENSKAIEGVTVPVISLSRPHDVVVDALSKACSEWGFFLITDHGVEPSLIGRLKEVGEEFFKLPQKEKESYANDPSSGSFEGYGTKMTKNFDEKVEWIDYYFHVMHPPKKLNLDMWPKNPSSYRGVTEEYNVEILRTTNKLLELLSEGLGLDGKVLNSSLGGDEIEFEMKINMYPPCPQPELALGVEPHTDMSALTLLIPNDVPGLQVWKDGNWVAVNYLPNALFVHVGDQLEVLSNGKYKSVLHRSLVNKERTRMSWAVFVVPPHEAVIGPLPELIDEKNPAKYSTKTYAEYRYRKFNKIPQ
notes: synthetic gene in pET-28a(+) (NcoI/XhoI), expressed in E. coli BL21(DE3); 331 residues; mutants carry fragments of AnFNS I
For orientation: Km means the concentration of substrate that gives half-maximal velocity. The term Vmax denotes the rate approached at saturating substrate. As a reminder, the kcat is the maximal rate divided by the concentration of active sites. As usually defined, the kcat/Km is the turnover number divided by the Michaelis constant. B1: the Km stood at 55.47 µM, the Vmax worked out at 0.0558 µmol/min/mg, the kcat was 0.0349 s⁻¹ and the kcat/Km was found to be 629 M⁻¹ s⁻¹.
